Experimental data as given in the DeepSol protein solubility set.

Test: soluble on expression in E. coli; label from the status in PepcDB or PDB records

Row | Sequence | soluble on expression in E. coli
1 | MSLSNALVNPREAPAHGRFVPAPILAHRNCTQGALNMLEAKLKPHREYLLAQSAGQKLFLTLTVKPTAEARQARPDLSVVFVVDTSGSMREVVTEPTERTGRTTQVDGQVYEVVKGGKNKMQLMIEALRGIVTSTLIRPGDRLALVKFDDTAEVLVPFITASNQAQLAAAVDKLDWYSGGTHMGAGMRAGAGLLTGERGSRRMVLISDGQTFDAPLVEDQIGALAGLQVPVTVVAVGDEVNADLLTAIADRTQGQPLDIVPDTQNPQPPAIRASELPAALLGDLQKAAAEVVTGVALSVRTVKDVVLERVTRVQPTQTEVALRADGPLPLGNVDAGSGATFVLEFTLPARPATKMRLAQLGLTYEVPGANYRGEIPPLDVVVEFTGEEALAARIDPEVMGWVQQRNIEGLVAQATREANQNPEQAAKTLEQARAMTQRLGNGAMTQALDRAIGELGSSKTISLGTAKTLKIGAKTQTLSSDAALPSDEDIRRMTGEGGSHHHHHH | soluble
2 | MSLSNGAPGTRIASAVGAFDVSRRASLTRGAGEAVERFALVPVPADSEHLLARNGSADPQIDFVSAGLGHVSALACDVPWYRAVDLLTGKPTQVPAPVVDYTPGRGESNSWDAFFDPSPNGAASGPSEAFAQTSAIAEVMERDAFLAAWRHKIPLQKFDAKSMPVAVRQGAEARGLSLLLVAARAAGVEPTLAFIPNNGSPLLTAVCIITEEKGPVCYGAVGLKAASDPVSALKGALQEGLQIRELFLTRAHSADPASASPVSAPSVATVTDDDSRAHFWTTAPAIAELRRWVGSFQPSNFPSKQPEPDLDALVKHLAGRNVRSHWVNLTHRLPAAIRELGWVAGKAVCPGAVPLTMDETKELFVMPGSEGHHHHHH | soluble
3 | MSLSNLPADSFRVGVSEDRNRRCRRTMEDAHSFVYDFAGVKGQGYFAVFDGHAGKHAAEWCGQNFHEYLLDGLLIEPDTPVPDLMNKTFHLVDKRLSHLAHAAGTSSGCTAVTAFLRVEEMDDNDSFRKGFTNPGLQPRGLWEGKGEDELESQTSLQPSSRRSSMGGGTGGQMGGASAPGVNGRTGSLARRLSSKKIRDFVKGLTGGMEKNFDEAITEDEGVISAADGTRVEAIEPKSEKGVRRVLYTANVGDARAVLCRGGKAVRLTYDHKGSDAQEAKRITDAGGFVMNNRVNGVLAVTRSLGDASMKEFVVGAPYTTETTLDEQDEFLIVACDGLWDVCSDQEAVEIVHLVTDPQEASKRLLDHAMSNFSTDNLSVMVVRFNHEGHHHHHH | soluble
4 | MSLSNTVHVFFGNKDSKVQVFKDKGTNQFANQVNLFMGDYLDTYFNRDKDTDLDKLKKYYGSGIDIKGQESRDIDMKLEHVSLVEIKSSVAVYDINYQIKDGDNWKSVLARINVPYKEKDGRYYVSDLPYYTDQSSYVADTVKGNSKLPTQSEVEGLSNKKLSGLKDYIVAFFKAYTSGDNSQMAPFSGAVSPLKSYEFEELDYAYFIKHKHSIIAVVQVTFKNEFGVKHQENFTLEVTESKQTSSYYVKSMKHGIDEDCRKEMKMDEGHHHHHH | soluble
5 | MSLSNYWLGLDCGGSWLKAGLYDGAGREVAVQRLPLHALSPQPGWVERDMTELWQQCASVISKLLAHTGVSGSQIRGLGISAQGKGLFLLDKSDRPLGKAILSSDRRAMEIVQRWQKEAVPQKLYPLTRQTLWTGHPVSLLRWVKENEPQRYAQIGCVMMTHDYLRWCLTGVKGCEESNISESNLYNMATGQYDPRLTEWLGISEIDSALSPVVGSAEICGEITAQAAAITGLAAGTPVVGGLFDVVSTALCAGIEDESTLNAVMGTWAVTSGIAHGLRDHEAHPYVYGRYVNDGQYIVHEASPTSSGNLEWFTAQWGDLSFDEINQAVASLPKAGSDLFFLPFLYGSNAGLEMTCGFYGMQALHNRAHLLQALYEGVVFSHMTHLNRMRERFTEVCALRVTGGPAHSDVWMQMLADVSGLRIELPQVEETGCFGAALAARVGTGVYRDFREAQRDLQHPVRTLLPDMTAHALYQRKYRQYQDLIEALQGYHARIKEHALEGHHHHHH | soluble
6 | MSLSPNDHCFSSHTETGPRKRNEDFSVYIDDLNSLLTCHHGRISVFGVFDGHMGTSASDYCSFKIFNYLVSNPHFPENIQIALKESFKQVNKGFLTIADVLHINAGTTAGVCVIDDKKITTANIGDTEIMFCKRNHKPLILSNKHSPNNEIEKQRIELAGGKVFYFHGWRVEGLLGVSRSIGDIALKKFVIDEADTNQIERSPDDEFVLIGCDGLWNVISYDFCADMVREYLYTNNYNGVDENGIKKPINKKDIARYLVDLALFKQSLDNVTVSIYFFSKEGHHHHHH | soluble
7 | MSLSQANRVFITGRSALTASGATADETWNAIISGQCGIDEINFWELSEWSHRLGGEIKDFQPSKMLPDRKLIKVISRQDIMGINAAVQAVEHSKMIAYRDSLADADLFNEQTAIYVGSPGNKYFQQYDFIPLLAKTHGDMRSFANQLFDEVHPMWLLRILPNNVLAYTGITYGFKGPNHNVTNHAVGGTQAILEAYHAIRSGQAERAVVVAYDIGTEPQGLFYYEKLGVVSNRHLKPFDKEHDGTILAEGAAALVLESEASVKSRAATCYGEIVGGLSASEATGLFSIEADGQHLASLMGQTLSTSGINSEEIGLIVTHGNGNSKSDDSEALAIKSVFKQEEVPATAFKWSMGHTLCASGVLDAVLTTYALETKCVPGIANFQQIAPTCEGLSVSREHREIISNSYAMMINRGFASMNVCLVIKACEEGHHHHHH | not soluble
8 | MSLSQSSRLSALPIFQASLSASQSPRYIFSSQNGTRIVFIQDNIIRWYNVLTDSLYHSLNFSRHLVLDDTFHVISSTSGDLLCLFNDNEIFVMEVPWGYSNVEDVSIQDAFQIFHYSIDEEEVGPKSSIKKVLFHPKSYRDSCIVVLKEDDTITMFDILNSQEKPIVLNKPNNSFGLDARVNDITDLEEGHHHHHH | soluble
9 | MSLSRHSNTPATDASVLLVQLSDSHLFAEDGARLLGMDTAHSLEKVVERVAREQPRIDLILATGDVSQDGSLDSYTRFRRLSAPLDAPLRWFAGNHDEREPMQRATEGSDLLEQVVDVGNWRVVLLDSSIPGAVPGYLEEDQLELLRRAIDSAGERFLLVSFHHHPVPIGSDWMDPIGLRNPQALFDLLAPYPQVRCLLWGHIHQEFDRQRGPLRLLASPSTCVQFAPGSSDFTLDRLAPGYRWLRLHDDGRLETGISRVDDVVFEVDYDTAGYEGGSHHHHHH | soluble
10 | MSLSRKNQELAKIFERMADILEFLGENPYRIRTYRRVANLISELQEDVEKAFYTRKLHHMPGIGESTLLKIEEFLKTGTIKKYEELRRMVPEDLLELLDAPGVGPKTLKIAYEQLGIRTKEEFIEALKKGKFNKIRGFGPVKALKILRGIELWEKSKERISLIEAYPMAQEVLKYMERIKDKYENISIAGSLRRMKETIGDIDILVSAKKENWKAIHEHFTKYPGLLEVLAKGETKSSIILDTGRQVDLRTVEPISWGAALQYFTGSKQHNIRIRDIAKEKGLKVNEYGVFKVDTEERIAGETEEGVYEVLGMQWIPPELREDWGEIELALEHKLPRLVELKDIKGDLHMHTNWSDGVNTLEEMVETAYKLGYQYIVIGDHSQSARVANGLDPERYKQQWKEIDRLNKEYNPKGFYILKGAEVDILPDGSLDLPDEVLEQFDFVVASVHSRFEQDNTERIIKAMENPYVNMIGHPTGKQYGYREGYPVNIEKLIQKAKETGTALELNTQRMDLSPENVRKCMEAGVYIGIVTDAHSARQLHLMFLGVGLARRGWATPDKVINTFDLEGLKEFVYKKRKNLAREGHHHHHH | soluble
11 | MSLSRLLNDFNQSLKKGFIDKDISHKGNYTPKLLVNNKNEKVLSTIIDELQKCETFYFSVAFITESGLASLKAQLLDLSNKGVKGKILTSNYLGFNSPKMYGELLKLKNVEVRLTDIAGFHAKGYIFEHKDYSSMVIGSSNLTSNALKVNYEHNVLLSTMKNGDLVDSVKNEFELLWQKSTPLTEQWINSYKESFEYRSLEKLAEVEQTQMLLADKVKKSVEIVPNLMQAEALRSLKAIRDKTKDKALIISATGTGKTILCALDVREVNPNKFLFIVHNEGILNRAKEEFKKVLPIKNDSDFGLLTGKHRDVDAKYLFATIQTLSRDDNFKQFDENEFDYIVFDEAHRSAASTYQRVFNYFKPKFMLGMTATPERSDELSIFELFDYNIAYEIRLQAALESDILCPFHYFGVTDYVHQGIKEDDVTKLRYLTSDERVNYIIQKTDEGHHHHHH | not soluble
12 | MSLSRLSSPQTFSRVFIVARGAATGHAVAPSSDNSIGYFEKIAYRFKGIPLPTETEAPKSMFDACNKEWSAPELLPSVPKDFKEHPDRDLTNYPYPSRPMYPPKTRLLMMPDSWFTAFQKVTGTSGPYLFFGGLFAFLVNKELWVFEEQGHMTVGWILFYLLVSRTAGYKIDAGLYKDYQERVGFFKGLIQEDLKEAVDFRKTSAAQTASFAALKEGMPTSLKDSMQLQLEAAYRKNVQTISNEIKRRIEYLKETEETKARFERDQLLKLINDSVEKQVSQKDFQEKFLQNAIQQLKGIAV | not soluble
13 | MSLSRPTKFRKVDFFPKSTCFIPLGKPKCEVEEIALKIEELEAIRLKDIKELNQEECAAKMEVSRQTFQNIIDSARKKIAIALTEGNAIAIGGGNFKSKFCKFKCLDCRNTYEINCENDKHMCPSCGSNNIVCNKKTGSCENLCKEGHHHHHH | soluble
14 | MSLSTELDFEKPIRDLKGKIEELRTFTEEKEIDLSDEIEKLEKRLHALEENIYGNLKPWQRVQIARHGERPTTLDYIEQLFSDFLEMHGDRLYGDDEAIVAGIAKYKGQPVTVIGHQRGKDTKENIRRNFGMPHPEGYRKALRLMKQAEKFHRPVICFIDTKGAYPGKAAEERGQSEAIARNLLEMAGLKVPIVCIVIGEGGSGGALALGVGDRIHMLENSTYSVISPEGAAALLWKDASQAQRAAETMKITAPDLKELQIIDDIIPEVRGGAHRNVAEQAEAIDQVLEKSLKQLSSLTTEELLNKRYEKYKKIGEFSHVNDAISVNEGHHHHHH | soluble
15 | MSLSTLQDLEKTLWATADKMRANMDPAEYKHIVLGLIFLKYISDSFAGRRAELERKFSDAGDDYYLGGDDPTYLASELEERDYYKEVNVFWVPEPARWESLRAAAKQVDIGKRIDDALADIEAENPQLKNILDKRYARAQLPDGKLGELVDMISIIGFSSDANKARDLLGQVYEYFLGQFASAEGKRGGQFYTPASIVKTLVAVLNPHHGKVYDPCCGSGGMFVQSEKFIEAHGGKLGDVSIYGQESNPTTWRLAAMNLAIRGMDFNLGKEPADSFIRNQHSDLRADFVLANPPFNISDWWHGSLDGDSRWVYGTPPQGNANYAWLQHMLFHLKSSGRAGIVLANGSMSSSQNSEGDIRRAMVEADVVEVMVALPGQLFFNTQIPACLWFLAKQKNKRPGEVLFIDARKLGTNISRVQIELLDSDIESIAQTVANWRGVPLEVDGEIAEYADVAGFCRSVPLAEIAEHGHVLTPGRYVGAEAVEDDDEAFADKMQDLTALLGEQLAKGTELDQLIRHKLGGLGYEEGHHHHHH | soluble
16 | MSLSVSLVYRKARPDDWKGILELYNSLSDDDLYLRFFTFHKLTEEEARKIADTKEHYTVIAEINGKIVGEASIYFDGEFAVVVHPDYRRLGIGTELVKRLIEFAKKNGIKKVRFYTLPENYPMIKIGKKLGFKIIEREDEVYAYLDLTNENVILEKT | soluble
17 | MSLSYLPLDEYQRKWIFTHQSMPVPEEDLAQIKPMSQARSAQFWKENISAQSPDMDRLSSQDWPMKESNWSETVDWMAAWESDEPNMPTEVETHIDWQDDVTVYFCYEKYNVIETKWSIFKKHWKNFLFYDDGPMLLGRRRAQALWFDSKGNVKLGERHEGHHHHHH | soluble
